Measurements taken from patent publication US20090221680, “Aptamers that bind thrombin with high affinity” (published 2009).

These binders were tested against thrombin (alpha-thrombin) (Homo sapiens, UniProt P00734;P00734 P00734:315-363,P00734:364-622) (assay: filter).

Binder	Kd [nM]
ACTGCCUAGGTTGGGTAGGGTGGTGGCAGT (XNA, 2'-OMe U7, rest DNA) [ARC2619]	0.215
ACUGCCUAGGTTGGGTAGGGTGGUGGCAGU (XNA, 2'-OMe 1-7,24,25,27-30, rest DNA) [ARC2823]	9.1
CUGCCUAGGTTGGGTAGGGTGGUGGCAG (XNA, 2'-OMe 1-6,23,24,26-28, rest DNA) [ARC2830]	15.3
GCCTAGGTTGGGTAGGGTGGTGGC (XNA, 2'-OMe 1-3,22,24, rest DNA) [ARC2845]	0.86
ACTGCCTAGGTTGGGTAGGGTGGTGGCAGT (XNA, 2'-OMe G25, rest DNA) [ARC2637]	0.118
CUGCCTAGGTTGGGTAGGGTGGTGGCAG (XNA, 2'-OMe 1-4,26-28, rest DNA) [ARC2832]	1.88
ACTGCCTAGGTTGGGTAGGGTGGTGGCAGT (XNA, 2'-OMe G4, rest DNA) [ARC2616]	0.091
ACUGCCTAGGTTGGGTAGGGTGGTGGCAGU (XNA, 2'-OMe 1-6,25,27-30, rest DNA) [ARC2824]	0.73
ATGATTAGGTTGGGTAGGGTGGTATCAT (ssDNA) [ARC2833]	2.16
ACTGCCTAGGTTGGGTAGGGTGGUGGCAGT (XNA, 2'-OMe U24, rest DNA) [ARC2636]	0.102
ACTGCCTAGGTTGGGTAGGGTGGTGGCAGT (XNA, 2'-OMe G14, rest DNA) [ARC2626]	1.59
ACTGCCTAGGTTGGGTAGGGTGGTGGCAGT (XNA, 2'-OMe C27, rest DNA) [ARC2639]	0.08
GCCUAGGTTGGGTAGGGTGGUGGC (XNA, 2'-OMe 1-4,21,22,24, rest DNA) [ARC2844]	2.65
ACTGCCTAGGTTGGGTAGGGTGGTGGCAGT (ssDNA, PS linkage between nt 2 and 3) [ARC2645]	0.167
ACTGCCTAGGTTGGGTAGGGTGGTGGCAGT (ssDNA, PS linkage between nt 13 and 14) [ARC2656]	0.151
ACTGCCTAGGTTGGGTAGGGTGGTGGCAGT (XNA, 2'-OMe G29, rest DNA) [ARC2641]	0.171
ACTGCCTAGGTTGGGTAGGGTGGTGGCAGT (XNA, 2'-OMe C2, rest DNA) [ARC2614]	0.052
GCCTAGGTTGGGTAGGGTGGTGGC (XNA, 2'-OMe 1-2,24, rest DNA) [ARC2846]	0.27
ACUGCCTAGGTTGGGTAGGGTGGTGGCAGU (XNA, 2'-OMe 1-5,27-30, rest DNA) [ARC2825]	1.03
CUGCCTAGGTTGGGTAGGGTGGTGGCAG (XNA, 2'-OMe 1-5,24,26-28, rest DNA) [ARC2831]	5.12
CTGCCTAGGTTGGGTAGGGTGGTGGCAG (ssDNA) [ARC2171]	0.221
ACTGCCTAGGTTGGGTAGGGTGGTGGCAGT (XNA, 2'-OMe G19, rest DNA) [ARC2631]	4.96

Binder	Kd [nM]
ACTGCCTAGGTTGGGTAGGGTGGTGGCAGT (XNA, 2'-OMe G26, rest DNA) [ARC2638]	0.192
ACTGCCTAGGTTGGGTAGGGTGGTGGCAGT (ssDNA, PS between G10 and T11) [ARC2653]	0.066
UGCCTAGGTTGGGTAGGGTGGTGGCA (XNA, 2'-OMe 1-3,25,26, rest DNA) [ARC2839]	0.58
ACTGCCTAGGTTGGGTAGGGTGGTGGCAGT (ssDNA, PS between T12 and G13) [ARC2655]	0.079
GAUTAGGTTGGGTAGGGTGGTAUC (XNA, 2'-OMe 1-3,22-24, rest DNA) [ARC2849]	0.2
ACTGCCTAGGTTGGGTAGGGTGGTGGCAGT (XNA, 2'-OMe G22, rest DNA) [ARC2634]	0.549
AUGAUTAGGTTGGGTAGGGTGGTAUCAU (XNA, 2'-OMe 1-5,24-28, rest DNA) [ARC2835]	1.27
ACTGCCTAGGTTGGGTAGGGTGGTGGCAGT (ssDNA, PS between G23 and T24) [ARC2666]	0.992
ACTGCCTAGGTTGGGTAGGGTGGTGGCAGT (ssDNA, PS linkage between nt 15 and 16) [ARC2658]	0.253
ACTGCCTAGGTTGGGUAGGGTGGTGGCAGT (XNA, 2'-OMe U16, rest DNA) [ARC2628]	0.207
ACTGCCTAGGTTGGGTAGGGTGGTGGCAGT (XNA, 2'-OMe G18, rest DNA) [ARC2630]	5.24
AATGATTAGGTTGGGTAGGGTGGTATCATT (ssDNA) [ARC2826]	0.77
UGCCTAGGTTGGGTAGGGTGGTGGCA (XNA, 2'-OMe 1-4,23,25,26, rest DNA) [ARC2838]	0.77
UGAUUAGGTTGGGTAGGGTGGUAUCA (XNA, 2'-OMe 1-5,22-26, rest DNA) [ARC2841]	3.55
ACTGCCTAGGTTGGGTAGGGTGGTGGCAGT (ssDNA, PS between T16 and A17) [ARC2659]	0.452
AAUGATTAGGTTGGGTAGGGTGGTAUCAUU (XNA, 2'-OMe 1-5,26-30, rest DNA) [ARC2829]	0.93
ACTGCCTAGGTTGGGTAGGGTGGTGGCAGT (XNA, 2'-OMe C6, rest DNA) [ARC2618]	0.121
AAUGAUUAGGTTGGGTAGGGTGGUAUCAUU (XNA, 2'-OMe 1-7,24-30, rest DNA) [ARC2827]	4.06
AUGAUUAGGTTGGGTAGGGTGGUAUCAU (XNA, 2'-OMe 1-6,23-28, rest DNA) [ARC2834]	10.3
GATTAGGTTGGGTAGGGTGGTATC (ssDNA) [ARC2847]	0.21
ACUGCCTAGGTTGGGTAGGGTGGTGGCAGT (XNA, 2'-OMe U3, rest DNA) [ARC2615]	0.094
GAUUAGGTTGGGTAGGGTGGUAUC (XNA, 2'-OMe 1-4,21-24, rest DNA) [ARC2848]	2.09

Binder	Kd [nM]
ACTGCCTAGGTTGGGTAGGGTGGTGGCAGT (XNA, 2'-OMe G13, rest DNA) [ARC2625]	0.568
GCTGCCTAGGTTGGGTAGGGTGGTGGCAGC (ssDNA) [ARC2170]	0.19
ACTGCCTAGGTTGGGTAGGGTGGTGGCAGT (XNA, 2'-OMe G10, rest DNA) [ARC2622]	0.038
ACTGCCTAGGTTGGGTAGGGTGGTGGCAGT (ssDNA, PS linkage between nt 14 and 15) [ARC2657]	0.219
AAUGAUTAGGTTGGGTAGGGTGGTAUCAUU (XNA, 2'-OMe 1-6,25-30, rest DNA) [ARC2828]	0.33
ACTGCCTAGGUTGGGTAGGGTGGTGGCAGT (XNA, 2'-OMe U11, rest DNA) [ARC2623]	0.746
ACTGCCTAGGTTGGGTAGGGTGGTGGCAGT (ssDNA, PS linkage between nt 18 and 19) [ARC2661]	0.246
ACTGCCTAGGTTGGGTAGGGTGGTGGCAGT (XNA, 2'-OMe A8, rest DNA) [ARC2620]	7.1
AUGATTAGGTTGGGTAGGGTGGTAUCAU (XNA, 2'-OMe 1-4,25-28, rest DNA) [ARC2836]	0.96
ACTGCCTAGGTTGGGTAGGGTGGTGGCAGT (XNA, 2'-OMe A1, rest DNA) [ARC2613]	0.173
ACTGCCTAGGTTGGGTAGGGTGGTGGCAGT (XNA, 2'-OMe A28, rest DNA) [ARC2640]	0.174
ACTGCCTAGGTTGGGTAGGGTGGTGGCAGT (XNA, 2'-OMe G9, rest DNA) [ARC2621]	1.52
TGATTAGGTTGGGTAGGGTGGTATCA (ssDNA) [ARC2840]	0.25
CCTCAGGGATGGTGTGGGTGGCTGAGG (ssDNA) [ARC1985]	5.7
ACTGCCTAGGTTGGGTAGGGTGGTGGCAGT (XNA, 2'-OMe G23, rest DNA) [ARC2635]	0.248
UGAUTAGGTTGGGTAGGGTGGTAUCA (XNA, 2'-OMe 1-4,23-26, rest DNA) [ARC2842]	1.06
ACTGCCTAGGTTGGGTAGGGTGGTGGCAGU (XNA, 2'-OMe U30, rest DNA) [ARC2642]	0.094
ACTGCCTAGGTTGGGTAGGGTGGTGGCAGT (ssDNA, PS linkage between nt 17 and 18) [ARC2660]	0.23
GATTAGGTTGGGTAGGGTGGTAUC (XNA, 2'-OMe 1-2,23-24, rest DNA) [ARC2850]	0.33
UGATTAGGTTGGGTAGGGTGGTAUCA (XNA, 2'-OMe 1-3,24-26, rest DNA) [ARC2843]	0.62
UGCCUAGGTTGGGTAGGGTGGUGGCA (XNA, 2'-OMe 1-5,22,23,25,26, rest DNA) [ARC2837]	2.61
